In experiment [1] the target is T1, Human CD40-his (Homo sapiens, UniProt P25942).
T1 construct: His; purchased Acro biosystems CD0-H5228
The experiment can be described thus: Octet kinetics of humanized C1H1 antibodies. Type of experiment: binding. The following applies: Table 3, Octet; for Ka: humanized antibodies in cell supernatant, chimeric and benchmark 5 μg/mL. As to the method:
After six days of culture in a shake flask, the cell supernatant containing the humanized antibodies huC1H1-V1 to huC1H1-V4 was harvested and the binding affinity of the antibodies to human CD40 was determined on an Octet system (Fortebio, Octet RED 96) according to the following procedures. Briefly, an anti-human IgG Fc capture (AHC) biosensor (from ForteBio) was pre-soaked in a 10 mM glycine solution (pH 1.5) for 3 s, and then soaked in a running buffer (PBST containing 0.5% w/v of BSA) for 3 s. The pre-soaking and soaking procedures were repeated 3 times. Then, the sensor was soaked in the cell supernatant containing the humanized anti-CD40 antibody, chimeric antibody C1H1 dissolved in HBS-EP^+ buffer at a concentration of 5 μg/mL, or the benchmark dissolved in HBS-EP^+ buffer at a concentration of 5 μg/mL for 120 s, and then soaked in the running buffer for 5 min. The new baseline was run in the running buffer for 180 s. The sensor was then soaked for 120 s in human CD40-his protein (Acro biosystems, Cat. No. CD0-H5228) 2-fold serially diluted from 40 nM in the running buffer and for 10 min in the running buffer […]. Finally, the sensor was pre-soaked in a 10 mM glycine solution (pH 1.5) for 3 s, and then soaked in the running buffer for 3 s. The pre-soaking and soaking procedures were repeated 3 times. The association and dissociation curves were fitted to a 1:1 Langmuir binding model using ForteBio Data Analysis 8.1.

In experiment [2] the target is T1, Human CD40-his. The experiment can be described thus: Biacore surface plasmon resonance affinity and binding kinetics. Particulars: for Kd: dissociation rate. The text has this:
(§1) The affinity and binding kinetics of the anti-CD40 antibody in the present application were characterized by a Biacore T200 system (GE Healthcare, Pittsburgh, PA, USA).
(§2) Briefly, a goat anti-human IgG (GE Healthcare, Cat. No. BR100839, human antibody capture kit) was covalently linked to a CM5 chip (GE Healthcare, Cat. No. BR100530, carboxymethylated dextran-coated chip) via the primary amine group using a standard amine coupling kit supplied by Biacore (GE Healthcare, Pittsburgh, PA, USA). Unreacted portions on the biosensor surface were blocked with ethanolamine. Then, the anti-CD40 antibody of the present application and two benchmark antibodies (BM1 (dacetuzumab, Genentech Inc., also referred to CD40-BM1, prepared in-house; the heavy and light chain amino acid sequences are set forth in SEQ ID NOs: 40 and 41, respectively) and BM2 (selicrelumab, Abgenix Inc., also referred to CD40-BM2, prepared in-house; the heavy and light chain amino acid sequences are set forth in SEQ ID NOS: 42 and 43, respectively)) at a concentration of 66.67 nM were directed through the chip at a flow rate of 10 μL/min. Then, serially diluted recombinant human CD40-his (Acro biosystems, Cat. No. CD0-H5228, serially 2-fold diluted from 80 nM in HBS-EP^+ buffer (supplied by Biacore)) or cynomolgus monkey CD40-his protein (Acro biosystems, Cat. No. CD0-C52H6, serially 2-fold diluted from 80 nM in HBS-EP^+ buffer (supplied by Biacore)) was directed through the chip at a flow rate of 30 μL/min. The antigen-antibody binding kinetics was tracked for 2 min and the dissociation kinetics was tracked for 10 min. The association and dissociation curves were fitted to a 1:1 Langmuir binding model using BIAcore evaluation software. KD, Ka, and Kd values were determined.

Experiment [3] has as its system Cynomolgus monkey CD40-his. The experiment is described as above. The following applies: for Kd: dissociation rate.
From the text: as §1, §2

In experiment [4] the target is human CD40-Fc protein (Homo sapiens, UniProt P25942). The experiment can be described thus: Capture ELISA binding. Particulars: in words, FIGS. 1A-1C. The protocol:
For capture ELISA, an affinity-purified goat anti-human IgG (F(ab′)2 fragment-specific, Jackson Immuno Research, Cat. No. 109-005-097) in PBS at a concentration of 2 μg/mL was immobilized on a 96-well plate at 100 μL/well and incubated overnight at 4° C. The plate was washed once with a washing buffer (PBS+0.05% v/v of Tween-20, PBST) and then blocked with 200 μL/well blocking buffer (PBST containing 5% w/v of skim milk) for 2 h at 37° C. The plate was washed 4 times, and the anti-CD40 antibody of the present application, BM1, BM2, and a negative control hIgG (human immunoglobulin for intravenous injection (pH 4), Hualan Biological Engineering Inc.) serially 5-fold diluted from 66.7 nM in a PBST containing 2.5% w/v of skim milk was added at 100 μL per well. The plate was incubated for 40 min at 37° C. and washed 4 times. A biotinylated human CD40-Fc protein (amino acid residues 21-193 of SEQ ID NO: 30 linked to the N terminus of amino acid residues 99-330 of SEQ ID NO: 28, dissolved in PBST containing 2.5% w/v of skim milk at a concentration of 1.15 nM) was added at 100 μL/well to a 96-well plate coated with the anti-CD40 antibody. The plate was incubated at 37° C. for 40 min and washed 4 times. An HRP-labeled streptavidin (diluted at 1:10000 in PBST, Jackson Immuno Research, Cat. No. 016-030-084) was added at 100 μL/well, and the plate was incubated at 37° C. for another 40 min. […]

The mark [5] stands for this setting: Table 2, Biacore, association rate.
Setting [6] is: Table 5, Biacore, purified antibodies.

T1 sequence (P25942 21-277): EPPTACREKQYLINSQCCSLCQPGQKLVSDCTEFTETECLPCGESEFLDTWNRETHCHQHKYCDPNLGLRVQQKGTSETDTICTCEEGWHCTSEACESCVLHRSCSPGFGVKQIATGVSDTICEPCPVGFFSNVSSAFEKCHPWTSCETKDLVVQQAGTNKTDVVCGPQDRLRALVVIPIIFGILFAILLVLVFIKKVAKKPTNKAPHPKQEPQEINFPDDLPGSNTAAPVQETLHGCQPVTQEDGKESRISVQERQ
Sequence of human CD40-Fc protein (P25942 21-193): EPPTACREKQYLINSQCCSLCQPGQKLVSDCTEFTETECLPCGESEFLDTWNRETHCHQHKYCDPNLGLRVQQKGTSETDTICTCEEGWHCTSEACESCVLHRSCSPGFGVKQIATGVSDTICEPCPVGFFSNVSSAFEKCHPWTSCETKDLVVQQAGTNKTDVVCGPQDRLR

B1: huC1H1-V3: humanized C1H1 anti-CD40 antibody, VH SEQ ID NO: 20 X1=A, VL SEQ ID NO: 24 X1=Y X2=Y, human IgG2/κ (antibody, V domains shown)
VH: EVQLVESGGGLVKPGGSLRLSCAASGFTFSNYGISWVRQAPGKGLEWVXSISSGGDNTYYPDNVKGRFTISRDNAKNSLYLQMNSLRAEDTAVYYCARAGEKAMDYWGQGTLVTVSS
VL: EIVLTQSPATLSLSPGERATLSCRASQTINNNLHWYQQKPGQAPRLLIXYASQSISGIPARFSGSGSGTDFTLTISSLEPEDFAVYXCQQFSSWPLTFGGGTKVEIK
modifications: not fully specified; variable positions X1=A; VL X1=Y X2=Y; IgG2/kappa constant; VH of huC1H1-V1 to huC1H1-V4; VARIANT 49 X can be A or S; VL of huC1H1-V1 to huC1H1-V4; VARIANT 49 X can be K or Y; VARIANT 87 X can be F or Y
Turning to B1, the Kd in experiment [1] (dissociation rate) is 0.00283 s⁻¹; in experiment [1] (read-out: KD), 5.41 nM. Also, the Ka in experiment [1] stood at 523000 M⁻¹ s⁻¹.

B2: huC1H1-V4: humanized C1H1 anti-CD40 antibody, VH SEQ ID NO: 20 X1=S, VL SEQ ID NO: 24 X1=Y X2=Y, human IgG2/κ (antibody, V domains shown)
VH: EVQLVESGGGLVKPGGSLRLSCAASGFTFSNYGISWVRQAPGKGLEWVXSISSGGDNTYYPDNVKGRFTISRDNAKNSLYLQMNSLRAEDTAVYYCARAGEKAMDYWGQGTLVTVSS
VL: EIVLTQSPATLSLSPGERATLSCRASQTINNNLHWYQQKPGQAPRLLIXYASQSISGIPARFSGSGSGTDFTLTISSLEPEDFAVYXCQQFSSWPLTFGGGTKVEIK
modifications: not fully specified; variable positions X1=S; VL X1=Y X2=Y; IgG2/kappa constant; VH of huC1H1-V1 to huC1H1-V4; VARIANT 49 X can be A or S; VL of huC1H1-V1 to huC1H1-V4; VARIANT 49 X can be K or Y; VARIANT 87 X can be F or Y
On to B2, for which the Kd in experiment [1] (dissociation rate) came out at 0.00367 s⁻¹; in experiment [1] (read-out: KD) it was 8.66 nM. Besides, in experiment [1], the Ka came out at 424000 M⁻¹ s⁻¹.

B3: Chimeric C1H1: C1H1 variable regions (SEQ ID NOs: 19, 23) on human IgG1 heavy chain and human κ light chain constant regions (antibody, V domains shown)
VH: EVKLVESGGGLVKPGASLKLSCAASGFTFSNYGISWVRQTSDKRLEWVASISSGGDNTYYPDNVKGRFTISRENAKNTLYLQMSSLKSEDTALYYCARAGEKAMDYWGQGTSVTVSS
VL: DIVLTQSPVTLSVTPGDSVSLSCRASQTINNNLHWYQQKSHESPRLLIKYASQSISGIPSRFSGSGSGTDFTLSINSVETEDFGIYFCQQFSSWPLTFGAGTKLELK
modifications: human IgG1 and kappa constant regions; VH of mouse and chimeric C1H1 antibodies; VL of mouse and chimeric C1H1 antibodies
Regarding B3, the Ka in experiment [2] (setting [5]) was 1.82e+06 M⁻¹ s⁻¹; in experiment [2] (setting [6]), 2.51e+06 M⁻¹ s⁻¹; in experiment [3] (setting [5]), 1.39e+06 M⁻¹ s⁻¹; in experiment [3] (setting [6]), 2.54e+06 M⁻¹ s⁻¹; in experiment [1], 1.47e+06 M⁻¹ s⁻¹. The Kd was found to be 0.001567 s⁻¹ in experiment [2] (Table 2, Biacore); 0.002221 s⁻¹ in experiment [2] (Table 5, Biacore); 0.001478 s⁻¹ in experiment [3] (Table 2, Biacore); 0.002147 s⁻¹ in experiment [3] (Table 5, Biacore); 0.000929 s⁻¹ in experiment [1] (dissociation rate). Besides, in experiment [4], the “Binding ability to human CD40 in capture ELISA” value is “higher binding affinity and ability to human CD40”.

B4: Mouse C1H1: mouse anti-CD40 monoclonal antibody, VH SEQ ID NO: 19, VL SEQ ID NO: 23 (antibody, V domains shown)
VH: EVKLVESGGGLVKPGASLKLSCAASGFTFSNYGISWVRQTSDKRLEWVASISSGGDNTYYPDNVKGRFTISRENAKNTLYLQMSSLKSEDTALYYCARAGEKAMDYWGQGTSVTVSS
VL: DIVLTQSPVTLSVTPGDSVSLSCRASQTINNNLHWYQQKSHESPRLLIKYASQSISGIPSRFSGSGSGTDFTLSINSVETEDFGIYFCQQFSSWPLTFGAGTKLELK
modifications: VH of mouse and chimeric C1H1 antibodies; VL of mouse and chimeric C1H1 antibodies
Turning to B4, the Ka in experiment [2] (setting [5]) came to 1.79e+06 M⁻¹ s⁻¹; in experiment [2] (setting [6]), 2.1e+06 M⁻¹ s⁻¹; in experiment [3] (setting [5]) it was 1.39e+06 M⁻¹ s⁻¹; in experiment [3] (setting [6]), 2.29e+06 M⁻¹ s⁻¹. Also, the Kd in experiment [2] (Table 2, Biacore) amounted to 0.001227 s⁻¹; in experiment [2] (Table 5, Biacore), 0.000897 s⁻¹; in experiment [3] (Table 2, Biacore) it was 0.001184 s⁻¹; in experiment [3] (Table 5, Biacore), 0.000863 s⁻¹.

The values above are taken from patent publication US20240398942A1, “USE OF ANTI-CD40 ANTIBODY” (CHIA TAI TIANQING PHARMACEUTICAL GROUP CO., LTD., priority 2021, published 2024).
